Measured values: article PMC2811425

How the values were obtained:
CC(=O)C(=O)O = experiment: cells, lysate or membranes
C[C@H](O)C(=O)O = experiment: cells, lysate or membranes

MCT1 (Rattus norvegicus)
Km (CC(=O)C(=O)O): 1.2 ± 0.2 mM
Km (C[C@H](O)C(=O)O): 5.7 ± 1.2 mM
